Columns and labels:
O=C(O)c1ccc(O)cc1 = experiment: purified protein; assay type: biochemical, Xylophilus ampelinus; conditions: apparent, 0.25 mM NADPH, 20 mM Tris-HCl pH 7.9, 25 °C
O=C(O)c1ccc(O)c(O)c1 = experiment: purified protein; assay type: biochemical, Xylophilus ampelinus; conditions: apparent, 0.25 mM NADPH, 20 mM Tris-HCl pH 7.9, 25 °C

Question: Which results are given for XaPobA (Xylophilus ampelinus; C347T)?
Answer: Km (O=C(O)c1ccc(O)cc1): 9.1 ± 3.4 × 10^−1 mM; Km (O=C(O)c1ccc(O)c(O)c1): 3.2 ± 1.0 × 10^−1 mM

Question: How did the Km (O=C(O)c1ccc(O)c(O)c1) turn out when XaPobA (Xylophilus ampelinus; M210A) was run?
Answer: Its Km is 9.6 ± 0.3 × 10^−1 mM.

Question: With XaPobA (Xylophilus ampelinus; W201A) as the substance, how does the Km (O=C(O)c1ccc(O)c(O)c1) read?
Answer: Its Km is 6.5 ± 2.7 × 10^−1 mM.

Question: How did the Km (O=C(O)c1ccc(O)cc1) turn out when XaPobA (Xylophilus ampelinus; W201Y) was run?
Answer: Its Km is 7.2 ± 2.2 × 10^−2 mM.

Question: What about the Km (O=C(O)c1ccc(O)c(O)c1) of the same substance?
Answer: The Km was 5.0 ± 1.1 × 10^−1 mM.
